Laboratory results from article PMC8708588, “Easy Expression and Purification of Fluorescent N-Terminal BCL11B CCHC Zinc Finger Domain” (Molecules, 2021).

T1: CyPet-BCL11B_(42-94) (UniProt Q9C0K0 42-94)
T1 construct: B-cell lymphoma/leukemia 11B (BCL11B), N-terminal atypical CCHC zinc finger domain, amino acids 42-94; codon-optimized insert; Order on the chain: His6, CyPet, flexible linker (GGGGS)3, TEV-cleaving site, XhoI site, BCL11B 42-94, KpnI site; Fusion of 36 kDa; CyPet already has lysine at position 206; also called fluorescently tagged BCL11B_(42-94); CyPet-tagged N-terminal BCL11B CCHC zinc finger …
T1 sequence (looked up): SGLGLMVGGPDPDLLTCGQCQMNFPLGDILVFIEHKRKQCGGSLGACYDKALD


What was measured:
[1] = molecular target: T1, CyPet-BCL11B_(42-94); assay: FRET or BRET; CyPet- and mEYFP-tagged domain mixed 1:1, total protein 200 µg/mL, 20 mM HEPES, 150 mM NaCl, 1 mM DTT, pH 7.4; incubated 48 h at 4 °C; excitation 400 nm, emission spectra 420-700 nm at room temperature; conditions: both partners purified
[2] = molecular target: the molecule itself; assay: SEC; Superdex 200 Increase 3.2/300 on ÄKTAmicro; sizes from a calibration curve with protein standards

Row | binding result [1] | Binder | binding result [2] | stoichiometry N [2]
1 | binds | mEYFP-BCL11B_(42-94) (domain or fragment, UniProt Q9C0K0 42-94, looked up, B-cell lymphoma/leukemia 11B (BCL11B), N-terminal atypical CCHC zinc finger domain, amino acids 42-94; codon-optimized insert; Fusion of 36 kDa; also called fluorescently tagged BCL11B_(42-94); source: E. coli NiCo21 (DE3), purified (IMAC, HisTrap excel); not shown: His6, N-terminal, kept; mEYFP (EYFP with A206K), N-terminal, kept) SGLGLMVGGPDPDLLTCGQCQMNFPLGDILVFIEHKRKQCGGSLGACYDKALD | binds | 
2 |  | untagged BCL11B_(42-94) zinc finger domain (domain or fragment, B-cell lymphoma/leukemia 11B (BCL11B), N-terminal atypical CCHC zinc finger domain, amino acids 42-94; 5.5 kDa; source: E. coli NiCo21 (DE3); TEV digest of purified CyPet- or mEYFP-BCL11B_(42-94), flow-through of IMAC; not shown: His6, N-terminal, cleaved; CyPet or mEYFP, N-terminal, cleaved) GLESGLGLMVGGPDPDLLTCGQCQMNFPLGDILVFIEHKRKQCGGSLGACYDKALD |  | 4
